Source: US5736363A, “IGF-II analogues” (British Bio-technology Limited, priority 1991, dated 1998)

Legend:
insulin receptor = molecular target: T1, insulin receptor (Rattus norvegicus, UniProt P15127); test: Insulin receptor binding assay on H35 cells
T1 construct: endogenous in cells; host or cells: H35 (rat hepatoma) cells

type 2 IGF receptor = molecular target: T2, type 2 IGF receptor (Rattus norvegicus, UniProt G3V824); test: Type 2 IGF receptor binding assay on H35 (rat hepatoma) cells
T2 construct: endogenous in cells; host or cells: H35 (rat hepatoma) cells
Description: Binding to the type 2 IGF receptor was assessed on H35 (rat hepatoma) cells, see FIG. 11. Cells at 5×10^5 cells/ml were seeded into 24 well plates at 5×10^4 cells/well in DMEM containing 0.5% FCS and incubated at 37°. The cells were used for assay after 2-3 days. For the binding assay, the growth medium was flicked out of the plate, and the cells washed once with binding medium (serum free DMEM containing 25 mM HEPES, 1 mg/ml BSA and 2 mM glutamine).
A further 400 μl of binding medium was added to each well along with 50 μl of sample or IGF-II standard (Bachem). Twofold dilutions of IGF-II were used for the standard curve to give final concentrations in the well from 300-1.56 ng/ml. Labelled IGF-II was then added (50 μl of […]) to give a final concentration of 2 ng/ml and a total of about 40,000 dpm per well. The plate was incubated at room temperature for 3 hr., the assay medium removed and the cells washed four times in Hanks buffered salt solution containing 1 mg/ml BSA. The plates were blotted dry and the cells solubilised for by the addition of 750 μl 10 mM Tris HCl, 5 mM EDTA, 0.2% w/v SDS. After 15 min the lysed samples were transferred to tubes and the residual counts determined using a gamma counter.

type 1 IGF receptor = molecular target: T3, type 1 IGF receptor (Mus musculus, UniProt Q60751); test: Type 1 IGF receptor binding assay on Swiss mouse 3T3 cells; conditions: for IC50, inhibits binding of 125I-IGF-II (type 1 IGF receptor): mutant value holds for material from either secretion or refolding route
T3 construct: endogenous in cells; host or cells: Swiss mouse 3T3 cells
Description: Swiss 3T3 cells at 5×10^4 cells/ml were seeded into 24 well plates at 5×10^3 cells/well in DMEM containing 10% FCS and incubated at 37°. The cells were used for assay after 5-6 days. For the binding assay, the growth medium was flicked out of the plate, and the cells washed twice with binding medium (serum free DMEM containing 25 mM HEPES, 1 mg/ml BSA and 2 mM glutamine). A further 400 μl of binding medium was added to each well along with 50 μl of sample or IGF-II standard (Bachem). Twofold dilutions of IGF-II were used for the standard curve to give final concentrations in the well from 300-1.56 ng/ml. […] The plate was incubated at room temperature for 2 hr., the assay medium removed and the cells washed four limes in PBS containing 1 mg/ml BSA and 0.1 μM KI. The plates were blotted dry and the cells solubilised for by the addition of 750 μl 0.5M NaOH containing 0.2% w/v Triton X100. After 15 min the lysed samples were transferred to tubes and the residual counts determined using a gamma counter.

[1] = refolded material (HRP fusion route)

T3 sequence (Q60751 31-737 limits assumed): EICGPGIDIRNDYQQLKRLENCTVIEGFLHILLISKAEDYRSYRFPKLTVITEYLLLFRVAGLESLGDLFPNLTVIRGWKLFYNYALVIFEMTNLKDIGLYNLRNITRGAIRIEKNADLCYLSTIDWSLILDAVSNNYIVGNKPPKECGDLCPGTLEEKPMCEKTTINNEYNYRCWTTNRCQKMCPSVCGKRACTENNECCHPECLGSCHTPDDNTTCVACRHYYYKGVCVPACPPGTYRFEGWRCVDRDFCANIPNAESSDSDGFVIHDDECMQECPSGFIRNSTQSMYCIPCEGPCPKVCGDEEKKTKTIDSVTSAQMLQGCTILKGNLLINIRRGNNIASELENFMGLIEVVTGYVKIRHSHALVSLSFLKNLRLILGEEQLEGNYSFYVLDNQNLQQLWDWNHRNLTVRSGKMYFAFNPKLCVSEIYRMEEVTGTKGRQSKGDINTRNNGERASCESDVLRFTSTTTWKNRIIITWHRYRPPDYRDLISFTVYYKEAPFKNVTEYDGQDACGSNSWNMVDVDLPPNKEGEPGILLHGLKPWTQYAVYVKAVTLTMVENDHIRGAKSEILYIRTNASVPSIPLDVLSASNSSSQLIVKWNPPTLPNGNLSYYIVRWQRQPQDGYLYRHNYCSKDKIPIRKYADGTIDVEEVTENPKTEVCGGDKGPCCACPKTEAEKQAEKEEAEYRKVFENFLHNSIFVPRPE
T3 sequence (Q60751 742-1373 partner limits assumed): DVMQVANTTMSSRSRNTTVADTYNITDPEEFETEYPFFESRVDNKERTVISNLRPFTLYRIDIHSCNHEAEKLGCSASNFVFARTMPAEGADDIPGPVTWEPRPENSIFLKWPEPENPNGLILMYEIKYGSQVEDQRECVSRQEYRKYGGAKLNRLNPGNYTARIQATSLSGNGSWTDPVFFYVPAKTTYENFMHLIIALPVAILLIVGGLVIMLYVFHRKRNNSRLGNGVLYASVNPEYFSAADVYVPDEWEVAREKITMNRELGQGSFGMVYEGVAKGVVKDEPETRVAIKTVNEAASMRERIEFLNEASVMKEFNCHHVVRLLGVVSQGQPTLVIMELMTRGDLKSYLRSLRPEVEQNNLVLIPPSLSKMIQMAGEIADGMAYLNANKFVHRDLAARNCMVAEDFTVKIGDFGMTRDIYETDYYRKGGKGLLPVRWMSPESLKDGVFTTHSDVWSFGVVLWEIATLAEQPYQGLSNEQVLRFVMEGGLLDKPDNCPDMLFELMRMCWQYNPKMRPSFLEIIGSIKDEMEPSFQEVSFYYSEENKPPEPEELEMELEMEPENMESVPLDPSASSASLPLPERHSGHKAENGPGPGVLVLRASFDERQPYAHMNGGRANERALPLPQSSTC
T1 sequence (P15127 27-759 limits assumed): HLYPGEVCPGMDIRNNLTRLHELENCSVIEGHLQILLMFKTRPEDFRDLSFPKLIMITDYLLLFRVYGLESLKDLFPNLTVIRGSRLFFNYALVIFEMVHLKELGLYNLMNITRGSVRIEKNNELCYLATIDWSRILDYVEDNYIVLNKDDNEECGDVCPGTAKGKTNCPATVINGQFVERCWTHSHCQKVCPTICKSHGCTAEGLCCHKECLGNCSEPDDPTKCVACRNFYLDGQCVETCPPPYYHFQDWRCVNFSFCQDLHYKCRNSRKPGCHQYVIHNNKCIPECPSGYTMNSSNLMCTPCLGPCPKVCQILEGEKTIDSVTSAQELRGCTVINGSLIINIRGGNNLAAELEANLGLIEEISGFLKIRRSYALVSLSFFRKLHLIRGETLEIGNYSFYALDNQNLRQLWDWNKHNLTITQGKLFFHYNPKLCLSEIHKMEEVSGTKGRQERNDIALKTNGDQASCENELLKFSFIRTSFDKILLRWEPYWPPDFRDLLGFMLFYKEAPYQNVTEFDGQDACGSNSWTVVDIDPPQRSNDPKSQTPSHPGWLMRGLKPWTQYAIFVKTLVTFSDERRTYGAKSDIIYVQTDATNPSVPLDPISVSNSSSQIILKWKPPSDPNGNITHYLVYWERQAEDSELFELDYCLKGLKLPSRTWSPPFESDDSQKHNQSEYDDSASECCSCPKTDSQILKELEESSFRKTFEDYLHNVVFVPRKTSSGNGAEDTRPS
T1 sequence (P15127 764-1383 partner limits assumed): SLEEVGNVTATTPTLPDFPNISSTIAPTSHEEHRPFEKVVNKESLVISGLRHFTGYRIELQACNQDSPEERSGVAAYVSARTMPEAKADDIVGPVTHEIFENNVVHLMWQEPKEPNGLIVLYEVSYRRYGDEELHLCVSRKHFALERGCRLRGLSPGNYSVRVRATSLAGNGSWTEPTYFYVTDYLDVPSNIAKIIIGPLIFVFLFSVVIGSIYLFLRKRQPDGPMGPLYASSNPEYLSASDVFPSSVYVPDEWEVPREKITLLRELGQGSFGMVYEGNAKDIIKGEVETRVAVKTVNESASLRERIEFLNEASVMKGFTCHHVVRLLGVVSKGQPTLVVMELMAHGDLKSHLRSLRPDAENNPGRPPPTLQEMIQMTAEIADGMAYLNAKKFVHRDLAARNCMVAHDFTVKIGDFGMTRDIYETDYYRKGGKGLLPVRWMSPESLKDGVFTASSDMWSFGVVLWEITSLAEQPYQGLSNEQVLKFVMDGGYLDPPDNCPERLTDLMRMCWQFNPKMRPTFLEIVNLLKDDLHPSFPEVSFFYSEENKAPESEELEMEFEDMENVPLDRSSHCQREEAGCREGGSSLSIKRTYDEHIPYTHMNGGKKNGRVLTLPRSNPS

IC50, inhibits binding of 125I-insulin (insulin receptor) (insulin receptor; [1]) | IC50, inhibits binding of 125I-insulin (insulin receptor) (insulin receptor; secreted material) | affinity for the type 2 IGF receptor versus native IGF-II (type 2 IGF receptor) | IC50, inhibits binding of 125I-IGF-II (type 2 IGF receptor) (type 2 IGF receptor; [1]) | IC50, inhibits binding of 125I-IGF-II (type 2 IGF receptor) (type 2 IGF receptor; secreted material) | affinity for the type 1 IGF receptor versus native IGF-II (type 1 IGF receptor) | IC50, inhibits binding of 125I-IGF-II (type 1 IGF receptor) (type 1 IGF receptor) | IC50, inhibits binding of 125I-IGF-II (type 2 IGF receptor) (type 2 IGF receptor; commercial reference standard (Bachem)) | Substance
1.3 µg/mL | 1.6 µg/mL | comparable to native IGF-II | 0.06 µg/mL | 0.03 µg/mL | comparable to native IGF-II | 0.21 µg/mL |  | IGF-II (Q^37 Q^38): IGF-II with the modifications Arg37Gln and Arg38Gln
 |  |  |  |  |  | 0.06 µg/mL | 0.018 µg/mL | wild-type standard (Bachem): recombinant IGF-II from a commercial supplier (Bachem) used as a reference standard [reference compound]
0.16 µg/mL |  |  | 0.03 µg/mL |  |  | 0.1 µg/mL |  | wild-type refolded material: wild-type IGF-II made by the HRP fusion route and refolded [reference compound]
